Reference: paper PMC9536601, “Binding of adenovirus species C hexon to prothrombin and the influence of hexon on vector properties in vitro and in vivo” (PLoS Pathogens, 2022)

B1: hexon of wild-type human adenovirus type 2 (on virions) (natural protein)
chain: MATPSMMPQWSYMHISGQDASEYLSPGLVQFARATETYFSLNNKFRNPTVAPTHDVTTDRSQRLTLRFIPVDREDTAYSYKARFTLAVGDNRVLDMASTYFDIRGVLDRGPTFKPYSGTAYNALAPKGAPNSCEWEQTEDSGRAVAEDEEEEDEDEEEEEEEQNARDQATKKTHVYAQAPLSGETITKSGLQIGSDNAETQAKPVYADPSYQPEPQIGESQWNEADANAAGGRVLKKTTPMKPCYGSYARPTNPFGGQSVLVPDEKGVPLPKVDLQFFSNTTSLNDRQGNATKPKVVLYSEDVNMETPDTHLSYKPGKGDENSKAMLGQQSMPNRPNYIAFRDNFIGLMYYNSTGNMGVLAGQASQLNAVVDLQDRNTELSYQLLLDSIGDRTRYFSMWNQAVDSYDPDVRIIENHGTEDELPNYCFPLGGIGVTDTYQAIKANGNGSGDNGDTTWTKDETFATRNEIGVGNNFAMEINLNANLWRNFLYSNIALYLPDKLKYNPTNVEISDNPNTYDYMNKRVVAPGLVDCYINLGARWSLDYMDNVNPFNHHRNAGLRYRSMLLGNGRYVPFHIQVPQKFFAIKNLLLLPGSYTYEWNFRKDVNMVLQSSLGNDLRVDGASIKFDSICLYATFFPMAHNTASTLEAMLRNDTNDQSFNDYLSAANMLYPIPANATNVPISIPSRNWAAFRGWAFTRLKTKETPSLGSGYDPYYTYSGSIPYLDGTFYLNHTFKKVAITFDSSVSWPGNDRLLTPNEFEIKRSVDGEGYNVAQCNMTKDWFLVQMLANYNIGYQGFYIPESYKDRMYSFFRNFQPMSRQVVDDTKYKEYQQVGILHQHNNSGFVGYLAPTMREGQAYPANVPYPLIGKTAVDSITQKKFLCDRTLWRIPFSSNFMSMGALTDLGQNLLYANSAHALDMTFEVDPMDEPTLLYVLFEVFDVVRVHQPHRGVIETVYLRTPFSAGNATT
notes: hexon of human adenovirus type 2 (species C), whole hexon as it stands in the capsid of the virion; Immobilised as whole virions; also called Ad2; source: wild-type virus from ATCC, grown on 293 cells, virions purified by CsCl ultracentrifugation
B2: bovine prothrombin (coagulation factor II) (natural protein)
chain: not shown
modifications: gamma-carboxylated glutamate residues in the Gla domain
notes: prothrombin (FII), bovine, plasma-derived; also called bovine FII; source: bought: Haematologic Technologies, Inc. (BCP-1010), plasma-derived
B3: hexon of wild-type human adenovirus type 5 (on virions) (natural protein)
chain: ATPSMMPQWSYMHISGQDASEYLSPGLVQFARATETYFSLNNKFRNPTVAPTHDVTTDRSQRLTLRFIPVDREDTAYSYKARFTLAVGDNRVLDMASTYFDIRGVLDRGPTFKPYSGTAYNALAPKGAPNPCEWDEAATALEINLEEEDDDNEDEVDEQAEQQKTHVFGQAPYSGINITKEGIQIGVEGQTPKYADKTFQPEPQIGESQWYETEINHAAGRVLKKTTPMKPCYGSYAKPTNENGGQGILVKQQNGKLESQVEMQFFSTTEATAGNGDNLTPKVVLYSEDVDIETPDTHISYMPTIKEGNSRELMGQQSMPNRPNYIAFRDNFIGLMYYNSTGNMGVLAGQASQLNAVVDLQDRNTELSYQLLLDSIGDRTRYFSMWNQAVDSYDPDVRIIENHGTEDELPNYCFPLGGVINTETLTKVKPKTGQENGWEKDATEFSDKNEIRVGNNFAMEINLNANLWRNFLYSNIALYLPDKLKYSPSNVKISDNPNTYDYMNKRVVAPGLVDCYINLGARWSLDYMDNVNPFNHHRNAGLRYRSMLLGNGRYVPFHIQVPQKFFAIKNLLLLPGSYTYEWNFRKDVNMVLQSSLGNDLRVDGASIKFDSICLYATFFPMAHNTASTLEAMLRNDTNDQSFNDYLSAANMLYPIPANATNVPISIPSRNWAAFRGWAFTRLKTKETPSLGSGYDPYYTYSGSIPYLDGTFYLNHTFKKVAITFDSSVSWPGNDRLLTPNEFEIKRSVDGEGYNVAQCNMTKDWFLVQMLANYNIGYQGFYIPESYKDRMYSFFRNFQPMSRQVVDDTKYKDYQQVGILHQHNNSGFVGYLAPTMREGQAYPANFPYPLIGKTAVDSITQKKFLCDRTLWRIPFSSNFMSMGALTDLGQNLLYANSAHALDMTFEVDPMDEPTLLYVLFEVFDVVRVHRPHRGVIETVYLRTPFSAGNATT
notes: hexon of human adenovirus type 5 (species C), whole hexon as it stands in the capsid of the virion; Immobilised as whole virions; also called Ad5; source: wild-type virus from ATCC, grown on 293 cells, virions purified by CsCl ultracentrifugation

What was measured:
[1] = target: T1, human prothrombin (coagulation factor II) (human, UniProt P00734 44-622, gamma-carboxylated glutamate residues in the Gla domain); assay: SPR; Biacore T200; about 300 to 5,000 RU of Ad virions immobilised on a CM5 chip, coagulation factors flowed over at four concentrations, 50 uL/min; running buffer 10 mM HEPES, 150 mM NaCl, 1 mM CaCl2, 0.5 mM MgCl2, 0.1% BSA, 0.05% polysorbate 20, pH 7.4; regeneration with 3 mM EDTA; global fit to a 1:1 kinetic interaction model, double referencing; conditions: both partners purified
T1 construct: prothrombin (FII), human, plasma-derived; also called human FII; FII; source: bought: Haematologic Technologies, Inc. (HCP-0010), plasma-derived

[2] = target: B1; assay: as above; conditions: both partners purified

Row | Binder | Kd [1] [nM] | koff [1] [s⁻¹] | kon [1] [M⁻¹ s⁻¹] | Kd [2] [nM] | koff [2] [s⁻¹] | kon [2] [M⁻¹ s⁻¹]
1 | B1 | 4.5 | 0.000393 | 87400 |  |  | 
2 | B2 |  |  |  | 140 | 0.00531 | 37800
3 | B3 | 39 | 0.00321 | 83500 |  |  | 
